Here are results for 11 molecules from patent US20150285810A1 (LUDWIG INSTITUTE FOR CANCER RESEARCH, published 2015).

First the molecules themselves.
B3: iASPP (625-828)-His (other)
chain: LNPLVLLLDAALTGELEVVQQAVKEMNDPSQPNEEGITALHNAICGANYSIVDFLITAGANVNSPDSHGWTPLHCAASCNDTVICMALVQHGAAIFATTLSDGATAFEKCDPYREGYADCATYLADVEQSMGLMNSGAVYALWDYSAEFGDELSFREGESVTVLRRDGPEETDWWWAALHGQEGYVPRNYFGLFPRVKPQRSKVHHHHHH
notes: Contains the ankyrin repeats and SH3 domain; FITC-labelled in the nuclear import assay; also called C-terminal iASPP

Assay [1] deals with T1, iASPP (1-240)-GST (human, UniProt Q8WUF5 1-240).
T1 construct: Expressed in bacteria, purified on glutathione beads; also called N-terminal iASPP; not shown: GST tag from pGEX vector (BamHI/EcoRI cloning)
T1 sequence: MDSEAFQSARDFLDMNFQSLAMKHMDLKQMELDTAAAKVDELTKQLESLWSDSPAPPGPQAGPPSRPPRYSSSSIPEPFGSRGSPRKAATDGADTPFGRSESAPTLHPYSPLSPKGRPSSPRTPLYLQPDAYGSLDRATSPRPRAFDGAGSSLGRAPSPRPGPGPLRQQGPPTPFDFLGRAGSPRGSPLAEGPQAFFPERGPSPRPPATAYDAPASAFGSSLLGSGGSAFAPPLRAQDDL
The assay is described as follows: glutathione bead pull-down of purified proteins, anti-His blot.

Assay [2] concerns the target B3. The description is as above.
The target of assay [3] is T2, iASPP (249-482)-GST (human, UniProt Q8WUF5 249-482).
T2 construct: not shown: GST tag from pGEX vector
T2 sequence: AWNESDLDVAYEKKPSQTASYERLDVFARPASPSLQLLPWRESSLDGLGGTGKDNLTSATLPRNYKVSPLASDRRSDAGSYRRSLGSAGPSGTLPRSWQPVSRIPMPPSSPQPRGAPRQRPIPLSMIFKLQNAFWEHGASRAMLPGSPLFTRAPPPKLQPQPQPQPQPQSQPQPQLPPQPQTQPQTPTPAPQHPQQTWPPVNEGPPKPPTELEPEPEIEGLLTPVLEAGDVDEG
Described as above.

The target in assay [4] is p53, transfected (co-transfected in H1299 cells; transfected in Saos-2 cells) (UniProt P04637 1-393). Nature of the assay: cell-based or functional assay.
Chain of p53, transfected (co-transfected in H1299 cells; transfected in Saos-2 cells) (P04637 whole entry): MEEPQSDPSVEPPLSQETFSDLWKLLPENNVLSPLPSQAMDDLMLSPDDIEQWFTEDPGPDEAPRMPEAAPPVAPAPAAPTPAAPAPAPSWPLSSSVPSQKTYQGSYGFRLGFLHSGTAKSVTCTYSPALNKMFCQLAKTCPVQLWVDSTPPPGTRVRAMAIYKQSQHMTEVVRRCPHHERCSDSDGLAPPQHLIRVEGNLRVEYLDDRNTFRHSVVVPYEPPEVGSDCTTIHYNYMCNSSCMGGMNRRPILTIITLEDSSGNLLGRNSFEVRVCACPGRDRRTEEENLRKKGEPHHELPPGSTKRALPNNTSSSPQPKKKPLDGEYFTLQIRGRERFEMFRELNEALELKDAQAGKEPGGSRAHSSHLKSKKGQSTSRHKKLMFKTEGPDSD
Assay [5] has as its target T1, iASPP (1-240)-GST. The assay is described as follows: in vitro translated iASPP(625-828)-V5 pulled down with iASPP(1-240)-GST glutathione beads.
Assay [6] has as its target T1, iASPP (1-240)-GST. The assay is described as follows: in vitro translated iASPP(625-828)-V5 mutant pulled down with iASPP(1-240)-GST glutathione beads.

B1: ASPP2 (905-1128)-His (other)
chain: RTNLRKTGSERIAHGMRVKFNPLALLLDSSLEGEFDLVQRIIYEVDDPSLPNDEGITALHNAVCAGHTEIVKFLVQFGVNVNAADSDGWTPLHCAASCNNVQVCKFLVESGAAVFAMTYSDMQTAADKCEEMEEGYTQCSQFLYGVQEKMGIMNKGVIYALWDYEPQNDDELPMKEGDCMTIIHREDEDEIEWWWARLNDKEGYVPRNLLGLYPRIKPRQRSLAHHHHHH
notes: FITC-labelled in the nuclear import assay; also called C-terminus of ASPP2
On to B1, for which, in assay [1], the binding result is listed as “no binding (tested: 10 µg/ml each)”.

B2: iASPP (1-240) S84D/S113D (other)
chain: MDSEAFQSARDFLDMNFQSLAMKHMDLKQMELDTAAAKVDELTKQLESLWSDSPAPPGPQAGPPSRPPRYSSSSIPEPFGSRGDPRKAATDGADTPFGRSESAPTLHPYSPLDPKGRPSSPRTPLYLQPDAYGSLDRATSPRPRAFDGAGSSLGRAPSPRPGPGPLRQQGPPTPFDFLGRAGSPRGSPLAEGPQAFFPERGPSPRPPATAYDAPASAFGSSLLGSGGSAFAPPLRAQDDL
notes: also called iASPP phosphor-mimic mutant; not shown: GST tag from pGEX vector
As for B2, the binding result in assay [2] was “no binding (tested: 10 µg/ml each)”. For the molecule B3, the binding result in assay [3] is “no binding (tested: 10 µg/ml each)”.

B4: iASPP(S84D/S113D)-V5 (other, not shown: small tags and cut ends)
chain: MDSEAFQSARDFLDMNFQSLAMKHMDLKQMELDTAAAKVDELTKQLESLWSDSPAPPGPQAGPPSRPPRYSSSSIPEPFGSRGDPRKAATDGADTPFGRSESAPTLHPYSPLDPKGRPSSPRTPLYLQPDAYGSLDRATSPRPRAFDGAGSSLGRAPSPRPGPGPLRQQGPPTPFDFLGRAGSPRGSPLAEGPQAFFPERGPSPRPPATAYDAPASAFGSSLLGSGGSAFAPPLRAQDDLTLRRRPPKAWNESDLDVAYEKKPSQTASYERLDVFARPASPSLQLLPWRESSLDGLGGTGKDNLTSATLPRNYKVSPLASDRRSDAGSYRRSLGSAGPSGTLPRSWQPVSRIPMPPSSPQPRGAPRQRPIPLSMIFKLQNAFWEHGASRAMLPGSPLFTRAPPPKLQPQPQPQPQPQSQPQPQLPPQPQTQPQTPTPAPQHPQQTWPPVNEGPPKPPTELEPEPEIEGLLTPVLEAGDVDEGPVARPLSPTRLQPALPPEAQSVPELEEVARVLAEIPRPLKRRGSMEQAPAVALPPTHKKQYQQIISRLFHRHGGPGPGGPEPELSPITEGSEARAGPPAPAPPAPIPPPAPSQSSPPEQPQSMEMRSVLRKAGSPRKARRARLNPLVLLLDAALTGELEVVQQAVKEMNDPSQPNEEGITALHNAICGANYSIVDFLITAGANVNSPDSHGWTPLHCAASCNDTVICMALVQHGAAIFATTLSDGATAFEKCDPYREGYADCATYLADVEQSMGLMNSGAVYALWDYSAEFGDELSFREGESVTVLRRDGPEETDWWWAALHGQEGYVPRNYFGLFPRVKPQRSKV
For B4, in assay [4], the “inhibition of p53 mediated transcription (PIG3 reporter, Saos-2 cells), against wild type iASPP” value was roughly 3 fold.

B5: iASPP (625-828)-V5, wild type, in vitro translated (other)
chain: LNPLVLLLDAALTGELEVVQQAVKEMNDPSQPNEEGITALHNAICGANYSIVDFLITAGANVNSPDSHGWTPLHCAASCNDTVICMALVQHGAAIFATTLSDGATAFEKCDPYREGYADCATYLADVEQSMGLMNSGAVYALWDYSAEFGDELSFREGESVTVLRRDGPEETDWWWAALHGQEGYVPRNYFGLFPRVKPQRSKV
notes: not shown: V5 tag
Turning to B5, in assay [5], the binding result is reported as “binds”.

B6: iASPP(625-828)/T722A/Y814A (other)
chain: LNPLVLLLDAALTGELEVVQQAVKEMNDPSQPNEEGITALHNAICGANYSIVDFLITAGANVNSPDSHGWTPLHCAASCNDTVICMALVQHGAAIFAATLSDGATAFEKCDPYREGYADCATYLADVEQSMGLMNSGAVYALWDYSAEFGDELSFREGESVTVLRRDGPEETDWWWAALHGQEGYVPRNAFGLFPRVKPQRSKV
notes: In vitro translated; not shown: V5 tag
Regarding B6, in assay [6], the binding result is “binds”.

B7: iASPP(625-828)/T722A/N813A (other)
chain: LNPLVLLLDAALTGELEVVQQAVKEMNDPSQPNEEGITALHNAICGANYSIVDFLITAGANVNSPDSHGWTPLHCAASCNDTVICMALVQHGAAIFAATLSDGATAFEKCDPYREGYADCATYLADVEQSMGLMNSGAVYALWDYSAEFGDELSFREGESVTVLRRDGPEETDWWWAALHGQEGYVPRAYFGLFPRVKPQRSKV
notes: as for B6
On to B7, for which the binding result in assay [6] was “binds”.

B8: iASPP(625-828)/L724A (other)
chain: LNPLVLLLDAALTGELEVVQQAVKEMNDPSQPNEEGITALHNAICGANYSIVDFLITAGANVNSPDSHGWTPLHCAASCNDTVICMALVQHGAAIFATTASDGATAFEKCDPYREGYADCATYLADVEQSMGLMNSGAVYALWDYSAEFGDELSFREGESVTVLRRDGPEETDWWWAALHGQEGYVPRNYFGLFPRVKPQRSKV
notes: as for B6
For the molecule B8, the binding result in assay [6] was “binds”.

B9: iASPP(625-828)/Y814A (other)
chain: LNPLVLLLDAALTGELEVVQQAVKEMNDPSQPNEEGITALHNAICGANYSIVDFLITAGANVNSPDSHGWTPLHCAASCNDTVICMALVQHGAAIFATTLSDGATAFEKCDPYREGYADCATYLADVEQSMGLMNSGAVYALWDYSAEFGDELSFREGESVTVLRRDGPEETDWWWAALHGQEGYVPRNAFGLFPRVKPQRSKV
notes: as for B6
Take B9: the binding result in assay [6] is “binds”.

B10: iASPP(625-828)/N813A (other)
chain: LNPLVLLLDAALTGELEVVQQAVKEMNDPSQPNEEGITALHNAICGANYSIVDFLITAGANVNSPDSHGWTPLHCAASCNDTVICMALVQHGAAIFATTLSDGATAFEKCDPYREGYADCATYLADVEQSMGLMNSGAVYALWDYSAEFGDELSFREGESVTVLRRDGPEETDWWWAALHGQEGYVPRAYFGLFPRVKPQRSKV
notes: as for B6
Take B10: the binding result in assay [6] is recorded as “binds”.

B11: iASPP(625-828)/T722A (other)
chain: LNPLVLLLDAALTGELEVVQQAVKEMNDPSQPNEEGITALHNAICGANYSIVDFLITAGANVNSPDSHGWTPLHCAASCNDTVICMALVQHGAAIFAATLSDGATAFEKCDPYREGYADCATYLADVEQSMGLMNSGAVYALWDYSAEFGDELSFREGESVTVLRRDGPEETDWWWAALHGQEGYVPRNYFGLFPRVKPQRSKV
notes: as for B6
B11: the binding result in assay [6] was “binds”.
